These results are taken from publication doi:10.1101/2024.03.08.584095v1.

Sequences and labels used below:
B1: AtPORC (Arabidopsis thaliana) (protein)
chain: QTVTATPPANEASPEQKKTERKGTAVITGASSGLGLATAKALADTGKWHVIMACRNFLKAEKAARSVGMSKEDYTVMHLDLASLESVKQFVENFRRTEQPLDVLVCNAAVYQPTAKEPSFTAEGFEISVGTNHLGHFLLSRLLLDDLKKSDYPSKRMIIVGSITGNTNTLAGNVPPKANLGDLRGLASGLNGQNSSMIDGGEFDGAKAYKDSKVCNMLTMQELHRRYHEETGVTFASLYPGCIATTGLFREHIPLFRLLFPPFQKYITKGYVSEEEAGKRLAQVVSDPSLGKSGVYWSWNNNSSSFENQLSKEASDAEKAKKLWEVSEKLVGLA
B2: AtPORB (Arabidopsis thaliana) (protein)
chain: QTAATSSPTVTKSVDGKKTLRKGNVVVTGASSGLGLATAKALAETGKWNVIMACRDFLKAERAAKSVGMPKDSYTVMHLDLASLDSVRQFVDNFRRTETPLDVLVCNAAVYFPTAKEPTYSAEGFELSVATNHLGHFLLARLLLDDLKKSDYPSKRLIIVGSITGNTNTLAGNVPPKANLGDLRGLAGGLNGLNSSAMIDGGDFDGAKAYKDSKVCNMLTMQEFHRRFHEETGVTFASLYPGCIASTGLFREHIPLFRALFPPFQKYITKGYVSETESGKRLAQVVSDPSLTKSGVYWSWNNASASFENQLSEEASDVEKARKVWEISEKLVGLA
B3: AtPORA (Arabidopsis thaliana) (protein)
chain: QAIATSTPSVTKSSLDRKKTLRKGNVVVTGASSGLGLATAKALAETGKWHVIMACRDFLKAERAAQSAGMPKDSYTVMHLDLASLDSVRQFVDNFRRAEMPLDVLVCNAAVYQPTANQPTFTAEGFELSVGINHLGHFLLSRLLIDDLKNSDYPSKRLIIVGSITGNTNTLAGNVPPKANLGDLRGLAGGLNGLNSSAMIDGGDFVGAKAYKDSKVCNMLTMQEFHRRFHEDTGITFASLYPGCIATTGLFREHIPLFRTLFPPFQKYITKGYVSESEAGKRLAQVVADPSLTKSGVYWSWNKTSASFENQLSQEASDVEKARRVWEVSEKLVGLA
B4: SynPOR (Synechocystis sp. PCC 6803 substr. Kazusa) (protein)
chain: MEQPMKPTVIITGASSGVGLYGAKALIDKGWHVIMACRNLDKTQKVADELGFPKDSYTIIKLDLGYLDSVRRFVAQFRELGRPLKALVCNAAVYFPLLDEPLWSADDYELSVATNHLGHFLLCNLLLEDLKACPDADKRLIILGTVTANSKELGGKIPIPAPPDLGNFEGFEAGFKKPIAMINNKKFKSGKAYKDSKLCNMLTTRELHRRFHQETGIVFNSLYPGCVADTPLFRNHYSLFRTIFPWFQKNVTKGYVSQELAGERVAMVVADDKFKDSGVHWSWGNRQQAGREAFVQELSEQGSDAQKAQRMWDLSEKLVGLV
B5: TaPOR1 (Triticum aestivum) (protein)
chain: GVVVITGASSGLGLAAAKALAETGKWHVVMACRDFLKASKAAKAAGMADGSYTVMHLDLASLDSVRQFVDAFRRAEMPLDVLVCNAAIYRPTARTPTFTADGHEMSVGVNHLGHFLLARLLMEDLQKSDYPSRRMVIVGSITGNSNTLAGNVPPKASLGDLRGLAGGLSGASGSAMIDGDESFDGAKAYKDSKVCNMLTMQEFHRRYHEETGITFSSLYPGCIATTGLFREHIPLFRTLFPPFQKFVTKGFVSEAESGKRLAQVVAEPSLTKSGVYWSWNKDSASFENQLSQEASDPEKARKVWELSEKLVGLA
B6: AtPORB (Arabidopsis thaliana; S312E) (protein)
chain: B2 chain with S246E

Positions count from the first letter of the chain named. Names may count otherwise.

Substrate in the first series: NC(=O)C1=CN([C@@H]2O[C@H](COP(=O)(O)OP(=O)(O)OC[C@H]3O[C@@H](n4cnc5c(N)ncnc54)[C@H](OP(=O)(O)O)[C@@H]3O)[C@@H](O)[C@H]2O)C=CC1
The series is described as follows: purified protein, by the assay type.
Conditions: not given
B1: the Km worked out at 0.73 µM.

On to B2, for which the Km is 1.27 µM.

On to B3, for which the Km came to 2.47 µM.

As to B4, the Km was found to be 12.85 µM.

On to B5, for which the Km is 39.67 µM.

Substrate in the next series: NC(=O)C1=CN([C@@H]2O[C@H](COP(=O)(O)OP(=O)(O)OC[C@H]3O[C@@H](n4cnc5c(N)ncnc54)[C@H](OP(=O)(O)O)[C@@H]3O)[C@@H](O)[C@H]2O)C=CC1
The experiment in a line: purified protein. To be noted: pH 7.1.
On to B6, for which the Km is reported as 14.4 ± 1.66 µM.
